Patent US20210292393A1
Where a chain is given by its changes, count along the chain named. Values joined by “and” are separate entries in the source; they are usually repeats but may differ in a detail not shown here. Identical values can stand only once.

Legend:
Conditions in all cases: remark: other sources report otherwise
[1] = target: SARS-CoV-2 full length spike protein (wild-type), conjugated to optically encoded beads (SARS-CoV-2), P0DTC2
[2] = target: T1, SARS-CoV-2 full length spike protein (wild type) (SARS-CoV-2), P0DTC2
[3] = target: T1, SARS-CoV-2 full length spike protein …; remark: listed apart in the source
[4] = target: SARS-CoV-2 spike (S) protein, full length, wild type, expressed on the surface of CHO cells (SARS-CoV-2), P0DTC2
[5] = target: SARS-CoV-2 spike (S) protein (SARS-CoV-2), P0DTC2
[6] = target: SARS-CoV-2 full length spike protein, wild type, expressed on the surface of CHO cells (SARS-CoV-2), P0DTC2
[7] = target: SARS-CoV-2 full length spike protein (wild-type) (SARS-CoV-2), P0DTC2
[8] = target: SARS-CoV-2 spike protein (SARS-CoV-2), P0DTC2

B1: antibody 551 (antibody, V domains shown)
VH: EVQLVESGGGLVQPGGSLRLSCAASGFTFSSYWMSWVRQAPGKGLEWVANINQDGSDKYYVDSVKGRFTISRDNAKNSLYLQMNSLRAEDTAVYYCARAPGWAAAPTFDYWGQGTLVTVSS
VL: QSALTQPRSVSGSPGQSVTISCTGTSSDVGGYNYVSWYQQHPGKAPKFMIYDVSKRPSGVPDRFSGSKSGNTASLTISGLQAEDEADYYCCSYAGSYTLVVFGGGTKLTVL
median fluorescence fold over isotype (fold over isotype) [1]: 649

B2: antibody 315 (antibody, V domains shown)
VH: QVQLVQSGSELKKPGASVKLSCQASGYSFTNHAMNWVRQAPGQGLEWMGWINTNTGNPTYAQGFTGRFVFSLDTSVSTTYLHISSLKAEDTAVYYCARASARPGVATNLDFWGQGTLVVVSS
VL: DIQMTQSPSSLSASVGDRVTITCRASQNIDNYLNWYQQKPGKAPKLLIYAASRLHSGVPSRFSGSGSGTDFTLIISSLQPEDLATYYCQQSYSNPLTFGPGTKVDIR
median fluorescence intensity fold over isotype (fold over isotype control) [2]: 592 | median fluorescence intensity, fold over isotype control (fold over isotype) [3]: 8.85

B3: antibody 325 (antibody, V domains shown)
VH: QVQLQESGPGLVKPSQTLSLTCTVSGGSISGGGYYWSWIRQHPGKGLEWIGYIYYSGSTYYNPSLQSRVTISVDTSKNQFSLKLSSVTAADTAVYYCARVGTSSVWYFDYWGQGTLVTVSS
VL: QSALTQPRSVSGSPGQSVTISCTGTSSDVGGYNYVSWYQQHPGKAPKLMIYDVTKRPSGVPDRFSGSKSGNTASLTISGLQAEDEADYYCSSYAGSWVFGGGTKLTVL
median fluorescence fold over isotype (fold over isotype) [4]: 1.14 and 1.08 | Kd [5]: 7.36 nM | koff [5]: 0.000154 s⁻¹ | kon [5]: 20900 M⁻¹ s⁻¹

B4: antibody 304 (antibody, V domains shown)
VH: EVQLLESGGGLVQPGGSLRLSCAASGFTFSTYAMSWVRQAPGKGLEWVSAISGSGGSTYYADSVKGRFTISRDNSKNTLYLQMNSLRAEDTAVYYCASGYSPDYWGQGTLVTVSS
VL: AIQMTQSPSSLSASVGDRVTITCRASQGIRNDLGWYQQKPGKAPKLLIYAASSLQSGVPSRFSGSGSGTDFTLTISSLQPEDFATYYCLQDYNYPRTFGQGTKVEIK
binding signal, bead assay (fold over isotype) [2]: 1.22 and 1.17 and 1.09 | Kd [5]: 3.14 nM | koff [5]: 0.000274 s⁻¹ | kon [5]: 87300 M⁻¹ s⁻¹

B5: antibody 322 (antibody, V domains shown)
VH: EVQLVESGGGLVQPGGSLRLSCAASGFTFSSYWMSWVRQAPGKGLEWVANIKQDGSEKYYVDSVKGRFTISRDNAKNSLYLQMNSLRAEDTAVYYCARDEDVAAALDYWGQGTLVTVSS
VL: SYVLTQPPSVSVAPGKTARITCGGNNIGSKSVHWYQQKPGQAPVLVIYYDSDRPSGIPERFSGSNSGNTATLTISRVEAGDEADYYCQVWDSSSDHPERVFGGGTKLTVL
median fluorescence fold over isotype (fold over isotype) [4]: 4.94 and 1.65 | Kd [5]: 21.1 nM | koff [5]: 0.000401 s⁻¹ | kon [5]: 19000 M⁻¹ s⁻¹

B6: antibody 269 (antibody, V domains shown)
VH: QLQLQESGPGLVKPSETLSLTCTVSGGSISSSSYYWGWIRQPPGKGLEWIGNIYYSGSTYYNPSLKSRVTISVDTSKNQFSLKLSSVTAADTAVYYCAGEELDIVATIYSSRYYYYGMDVWGQGTTVTVSS
VL: QSALTQPASVSGSPGQSITISCTGTSSDVGGYNYVSWYQQHPGKAPKLMIYEVSNRPSGVSNRFSGSKSGNTASLTISGLQAEDEADYYCSSYTSTSTLVFGGGTKLTVL
binding signal, bead assay (fold over isotype) [2]: 480 and 191 and 188 | median fluorescence intensity, fold over isotype control (fold over isotype) [3]: 13.3 and 9.09 | Kd [5]: 7.29 nM | koff [5]: 0.000444 s⁻¹ | kon [5]: 60900 M⁻¹ s⁻¹

B7: antibody 507 (antibody, V domains shown)
VH: QVQLQESGPGLVKPSGTLSLTCAVSGGSISSSNWWSWVRQPPGKGLEWIGEIYHSGNTNYNPSLKSRVTISVDKSKNQFSLKLSSVTAADTAVYYCARREWLRLFDYWGQGTLVTVSS
VL: B6 VL with G31S, Y34L, N55K, S91C, T94A, S95G, T96S, L99Y, G103T, L107V
median fluorescence fold over isotype (fold over isotype) [1]: 571 | median fluorescence fold over isotype control (fold over isotype) [6]: 1.51

B8: antibody 444 (antibody, V domains shown)
VH: QVQLVESGGGLVKPGGSLRLSCAASGFTFSDYYMSWIRQAPGKGLEWVSYISSSGSTIYYADSVKGRFTISRDNAKNSLYLQMNSLRAEDTAVYYCARERKVVVAATRNYYYYYGMDVWGQGTTVTVSS
VL: SYELTQPPSVSVSPGQTARITCSGDALPKQYAYWYQQKPGQAPVLVIYKDSERPSGIPERFSGSSSGTTVTLTISGVQAEDEADYYCQSADSSTWVFGGGTKLTVL
Binding to Wild-Type SARS-CoV-2 (Bead Assay) [7]: 0.97 and 0.91 and 0.9 | Kd [8]: 27.2 nM | koff [8]: 0.000717 s⁻¹ | kon [8]: 26400 M⁻¹ s⁻¹

B9: antibody 538 (antibody, V domains shown)
VH: QLQLQESGPGLVKPSETLSLTCTVSGGSISSSSYYWGWIRQPPGKGLEWIGSINYSGSTYYNPSLKSRVTISVDTSKNQFSLKLSSVTAADTAVYYCARYHDYGDDYWGQGTLVTVSS
VL: QLVLTQSPSASASLGASVKLTCTLSSGHSRYAIAWHQQQPEKGPRYLMKLNSDGSHSKGDGIPDRFSGSSSGAERYLTISSLQSEDEADYYCQTWGTGIQVFGGGTKLTVL
median fluorescence fold over isotype (fold over isotype) [1]: 607 | median fluorescence fold over isotype control (fold over isotype) [6]: 1.96

B10: antibody 416 (antibody, V domains shown)
VH: EVQLVESGGGLVQPGRSLRLSCAASGFTFDDYAMHWVRQAPGKGLEWVSGISWNSGSIGYADSVKGRFTISRDNAKNSLYLQMNSLRAEDTALYYCAKDLAWLSGGMDVWGQGTTVTVSS
VL: not shown
Binding to Wild-Type SARS-CoV-2 (Bead Assay) [7]: 110

B11: antibody 337 (antibody, V domains shown)
VH: QVQLVESGGGVVQPGRSLRLSCAASGFTFSSYGMHWVRQAPGKGLEWVAIIWYDGSNKYYADSVKGRFTISRDNSKNTLYLQMNSLRAEDTAVYYCAKDTGGYCSGGSCYPESYFDYWGQGTLVTVSS
VL: SYVLTQPPSVSVAPGKTARITCGGNNIGSKSVHWYQQKPGQAPVLVIYYDSDRPSGIPERFSGSNSGNTATLTINRVEAGDEADYYCQVWDGSSDHLYVFGTGTKVTVL
median fluorescence intensity fold over isotype (fold over isotype control) [2]: 756 | median fluorescence fold over isotype (fold over isotype) [4]: 2.08

B12: antibody 505 (antibody, V domains shown)
VH: EVQLVESGGGLVKPGGSLRLSCAASGFTFSSYSMNWVRQAPGKGLEWVSSISSSSSYIYYADSVKGRITISRDNAKNSLYLQMNSLRAEDTAVYYCAREYPNFRAEWLLSPYGMDVWGQGTTVTVSS
VL: QSALTQPASVSGSPGQSITISCTGTSSDVGSYNLVSWYQQHPGKAPKLMIYEVSKRPSGVSNRFSGSKSGNTASLTISGLQAEDEADYYCCSYAGSSTSVKVFGTGTKVTVL
median fluorescence fold over isotype (fold over isotype) [1]: 658 | median fluorescence fold over isotype control (fold over isotype) [6]: 1.55

B13: antibody 544 (antibody, V domains shown)
VH: QVQLQQWGAGLLKPSETLSLTCAVYGGSFSGYYWSWIRQPPGKGLEWIGEINHSGSTNYNPSLKSRVTISVDTSKNQFSLKLSSVTAADTAVYYCARGFKWFGELLFGAQGTLVTVSS
VL: not shown
median fluorescence fold over isotype (fold over isotype) [1]: 639 | median fluorescence fold over isotype control (fold over isotype) [6]: 2.48

B14: antibody 362 (antibody, V domains shown)
VH: QVQLVESGGGVVQPGRSLRLSCAASGFNLSNYAMHWVRQASGKGLEWVSLISYDGSVKYYTDSVKGRFTVSGDNSKNTLFLQMNSLRPDDSALYYCVRGGVSGPNSFDMWGQGTTVTVSS
VL: DVVMTQSPLSLPVTLGQPATISCRSSQSLVYSDGNTYVNWFQQRPGQSPRRLIYQVSIRASGVPDRFSGSGSGTDFALKISRVEAEDVGVYYCMQGTHWPVTFGQGTKVEIK
median fluorescence intensity fold over isotype (fold over isotype control) [2]: 503 | median fluorescence fold over isotype (fold over isotype) [4]: 9.45
